From PMC3314502

Target: FLAG-PICK1 (rat) (UniProt Q9EP80)
Experiment: pull-down

Chain of UniProt Q9EP80 (Q9EP80 whole entry): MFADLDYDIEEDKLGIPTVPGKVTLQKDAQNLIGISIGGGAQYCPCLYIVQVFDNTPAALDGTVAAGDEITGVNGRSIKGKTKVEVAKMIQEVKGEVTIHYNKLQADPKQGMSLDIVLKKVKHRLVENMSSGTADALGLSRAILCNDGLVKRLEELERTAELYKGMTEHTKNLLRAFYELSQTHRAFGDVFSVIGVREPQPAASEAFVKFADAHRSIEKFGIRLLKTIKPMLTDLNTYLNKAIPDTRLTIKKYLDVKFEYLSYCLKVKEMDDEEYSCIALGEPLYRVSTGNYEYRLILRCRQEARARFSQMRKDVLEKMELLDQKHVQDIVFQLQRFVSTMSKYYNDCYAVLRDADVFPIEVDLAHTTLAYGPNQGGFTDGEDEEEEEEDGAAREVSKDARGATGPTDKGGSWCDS

pep2-EVKI, point mutant of the C-terminal 11 amino acids of GluR2 (from UniProt P19491 873-883) (peptide)
percent of PICK1 retained by GST-ct-GluR5 (2b) with the peptide: 8%
